Test results published in article PMC11291249, “Investigating the biosynthesis and roles of the auxin phenylacetic acid during Pseudomonas syringae-Arabidopsis thaliana pathogenesis” (Frontiers in Plant Science, 2024).

What was measured:
[1] = test system: NC(=O)c1ccc[n+]([C@@H]2O[C@H](COP(=O)(O)OP(=O)(O)OC[C@H]3O[C@@H](n4cnc5c(N)ncnc54)[C@H](O)[C@@H]3O)[C@@H](O)[C@H]2O)c1; assay: purified protein; conditions: 1 mM PAAld, 100 mM Tris-HCl pH 8.0, 100 mM KCl, 25 °C, varied: cofactor
O=CCc1ccccc1 = assay: purified protein; conditions: 5 mM NAD+, 100 mM Tris-HCl pH 8.0, 100 mM KCl, 25 °C

AldA (Pseudomonas syringae pv. tomato str. DC3000)
Km [1]: 11.2 ± 1.2 µM | kcat [1]: 1.4 ± 0.0183 s⁻¹ | kcat/Km [1]: 125000 M⁻¹ s⁻¹ | Km (O=CCc1ccccc1): 645 ± 113 µM | kcat (O=CCc1ccccc1): 18.7 ± 1.3 s⁻¹ | kcat/Km (O=CCc1ccccc1): 29000 M⁻¹ s⁻¹
